Key:
p53_WT [1] = molecular target: T1, p53_WT (human, UniProt P04637 1-393); assay: AUC
p53_WT [2] = molecular target: T1, p53_WT; assay: EMSA
p53_WT [3] = molecular target: T1, p53_WT; assay: AUC; remark: listed apart in the source

T1 sequence (P04637 whole entry): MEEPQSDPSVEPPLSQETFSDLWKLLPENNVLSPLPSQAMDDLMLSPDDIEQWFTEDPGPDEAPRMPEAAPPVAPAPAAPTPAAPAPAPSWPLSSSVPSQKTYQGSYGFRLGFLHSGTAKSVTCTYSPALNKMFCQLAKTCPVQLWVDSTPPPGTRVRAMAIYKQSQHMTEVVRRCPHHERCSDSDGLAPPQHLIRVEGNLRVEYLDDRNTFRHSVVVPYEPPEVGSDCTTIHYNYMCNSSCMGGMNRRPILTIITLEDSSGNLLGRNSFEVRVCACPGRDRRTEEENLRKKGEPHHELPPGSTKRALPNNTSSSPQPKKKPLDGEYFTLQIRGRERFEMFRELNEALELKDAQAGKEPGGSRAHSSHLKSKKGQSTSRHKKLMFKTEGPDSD

Binder | binding result (p53_WT [2]) | also measured
DNAp21 (AUC) (dsDNA) DNA 1: CTCAACATGTTGGGACATGTTCCT DNA 2: AGGAACATGTCCCAACATGTTGAG |  | binding result (p53_WT [1]): binds
DNAmdm2 (EMSA) (dsDNA) DNA 1: GGTCAAGTTGGGACACGTCCGGCGTCGGCTGTCGGAGGAGCTAAGTCCTGACATGTCT DNA 2: AGACATGTCAGGACTTAGCTCCTCCGACAGCCGACGCCGGACGTGTCCCAACTTGACC | binds | 
DNAmdm2 (AUC) (dsDNA) DNA 1: GGTCAAGTTGGGACACGTCCGGCGTCGGCTGTCGGAGGAGCTAAGTCCTGACATGTCT DNA 2: AGACATGTCAGGACTTAGCTCCTCCGACAGCCGACGCCGGACGTGTCCCAACTTGACC |  | binding result (p53_WT [3]): binds
DNAp21 (EMSA) (dsDNA) DNA 1: GAACATGTCCCAACATGTTGGGCGTCGGCTGTCGGAGGAACATGTCCCAACATGTTG DNA 2: CAACATGTTGGGACATGTTCCTCCGACAGCCGACGCCCAACATGTTGGGACATGTTC | binds | 

— PMC12557481
